Where two headings read alike, the source gives them in different places.
Legend:
Experiment in all cases: SPR
[1] = target: Sbi-III-IV (amino acids 150-266), domains III and IV of Sbi (S. aureus strain Mu50) (UniProt Q99RL2)
[2] = target: Sbi-III-IV (amino acids 150-266), domains III and IV of Sbi (S. aureus strain Mu50) (UniProt Q99RL2); remark: listed apart in the source
[3] = target: Sbi-IV (amino acids 197-266), domain IV of Sbi (S. aureus strain Mu50) (UniProt Q99RL2)

Substance “C3dg, recombinant (from UniProt P01024 955-1303) (domain or fragment)” has a Kd [1] of 0.7 µM, a Kd [2] of 1.4 µM and a Kd [3] of 0.8 µM.
